Experimental findings from publication PMC9168836, “Clamping of DNA shuts the condensin neck gate” (Proceedings of the National Academy of Sciences of the …, 2021) are described below.

The target of one test is T1, Smc4-3xStrepII (budding yeast (S. cerevisiae), UniProt Q12267 1-1418).
T1 construct: Smc4, SMC subunit of budding yeast (S. cerevisiae) condensin; only the head domain, proximal coiled coil and residues 126-144 are resolved in the maps; The tag's end is read from the plasmid's name SMC4-3xStrepII; also called Scm4
T1 sequence: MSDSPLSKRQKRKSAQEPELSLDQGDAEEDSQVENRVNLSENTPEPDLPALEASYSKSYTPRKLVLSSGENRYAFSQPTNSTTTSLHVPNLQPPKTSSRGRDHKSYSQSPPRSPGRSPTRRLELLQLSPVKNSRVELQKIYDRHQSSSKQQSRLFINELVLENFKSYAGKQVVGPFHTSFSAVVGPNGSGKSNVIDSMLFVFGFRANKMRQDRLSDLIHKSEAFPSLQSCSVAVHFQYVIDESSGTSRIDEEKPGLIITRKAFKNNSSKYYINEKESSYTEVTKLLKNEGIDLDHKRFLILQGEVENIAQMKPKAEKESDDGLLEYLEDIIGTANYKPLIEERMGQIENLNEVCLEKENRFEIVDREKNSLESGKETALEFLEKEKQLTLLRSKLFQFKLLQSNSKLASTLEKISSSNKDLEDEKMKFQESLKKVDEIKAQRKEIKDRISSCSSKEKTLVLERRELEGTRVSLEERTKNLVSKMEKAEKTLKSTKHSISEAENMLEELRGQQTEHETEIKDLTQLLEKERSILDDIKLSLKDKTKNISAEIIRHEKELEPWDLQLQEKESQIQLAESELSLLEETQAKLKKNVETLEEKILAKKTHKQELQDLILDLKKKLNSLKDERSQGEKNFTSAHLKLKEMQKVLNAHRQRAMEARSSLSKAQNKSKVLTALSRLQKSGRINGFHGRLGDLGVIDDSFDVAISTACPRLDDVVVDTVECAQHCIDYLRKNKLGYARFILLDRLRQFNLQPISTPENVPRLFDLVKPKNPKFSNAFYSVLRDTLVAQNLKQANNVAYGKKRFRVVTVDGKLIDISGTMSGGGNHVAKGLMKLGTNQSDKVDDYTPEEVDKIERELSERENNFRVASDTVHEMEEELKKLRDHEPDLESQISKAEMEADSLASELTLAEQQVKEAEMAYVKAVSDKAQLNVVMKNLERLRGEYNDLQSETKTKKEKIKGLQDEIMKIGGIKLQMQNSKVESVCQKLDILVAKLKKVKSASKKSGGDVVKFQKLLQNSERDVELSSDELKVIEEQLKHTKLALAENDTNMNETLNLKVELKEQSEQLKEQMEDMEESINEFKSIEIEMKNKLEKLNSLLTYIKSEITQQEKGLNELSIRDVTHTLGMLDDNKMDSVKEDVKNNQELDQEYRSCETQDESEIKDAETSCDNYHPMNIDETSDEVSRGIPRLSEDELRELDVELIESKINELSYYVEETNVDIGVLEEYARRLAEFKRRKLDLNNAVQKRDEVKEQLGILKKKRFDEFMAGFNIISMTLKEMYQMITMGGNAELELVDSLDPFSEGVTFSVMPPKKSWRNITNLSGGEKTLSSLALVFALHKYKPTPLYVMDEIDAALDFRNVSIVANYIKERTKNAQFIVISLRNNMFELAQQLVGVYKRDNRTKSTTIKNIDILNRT
Description: cryo-EM structure; condensin pentamer (Smc2, Smc4, Brn1, Ycs4, Ycg1) with 80-bp dsDNA, 5 mM ADP, 1 mM BeSO4, 10 mM NaF in TNT buffer pH 7.5; separate maps of the clamped head module and of Ycg1-DNA. To be noted: both partners purified.

The next test has as its target T2, Ycg1 (budding yeast (S. cerevisiae), UniProt Q06680 1-1035).
T2 construct: Ycg1, HAWK (HEAT repeat) subunit of budding yeast (S. cerevisiae) condensin
T2 sequence: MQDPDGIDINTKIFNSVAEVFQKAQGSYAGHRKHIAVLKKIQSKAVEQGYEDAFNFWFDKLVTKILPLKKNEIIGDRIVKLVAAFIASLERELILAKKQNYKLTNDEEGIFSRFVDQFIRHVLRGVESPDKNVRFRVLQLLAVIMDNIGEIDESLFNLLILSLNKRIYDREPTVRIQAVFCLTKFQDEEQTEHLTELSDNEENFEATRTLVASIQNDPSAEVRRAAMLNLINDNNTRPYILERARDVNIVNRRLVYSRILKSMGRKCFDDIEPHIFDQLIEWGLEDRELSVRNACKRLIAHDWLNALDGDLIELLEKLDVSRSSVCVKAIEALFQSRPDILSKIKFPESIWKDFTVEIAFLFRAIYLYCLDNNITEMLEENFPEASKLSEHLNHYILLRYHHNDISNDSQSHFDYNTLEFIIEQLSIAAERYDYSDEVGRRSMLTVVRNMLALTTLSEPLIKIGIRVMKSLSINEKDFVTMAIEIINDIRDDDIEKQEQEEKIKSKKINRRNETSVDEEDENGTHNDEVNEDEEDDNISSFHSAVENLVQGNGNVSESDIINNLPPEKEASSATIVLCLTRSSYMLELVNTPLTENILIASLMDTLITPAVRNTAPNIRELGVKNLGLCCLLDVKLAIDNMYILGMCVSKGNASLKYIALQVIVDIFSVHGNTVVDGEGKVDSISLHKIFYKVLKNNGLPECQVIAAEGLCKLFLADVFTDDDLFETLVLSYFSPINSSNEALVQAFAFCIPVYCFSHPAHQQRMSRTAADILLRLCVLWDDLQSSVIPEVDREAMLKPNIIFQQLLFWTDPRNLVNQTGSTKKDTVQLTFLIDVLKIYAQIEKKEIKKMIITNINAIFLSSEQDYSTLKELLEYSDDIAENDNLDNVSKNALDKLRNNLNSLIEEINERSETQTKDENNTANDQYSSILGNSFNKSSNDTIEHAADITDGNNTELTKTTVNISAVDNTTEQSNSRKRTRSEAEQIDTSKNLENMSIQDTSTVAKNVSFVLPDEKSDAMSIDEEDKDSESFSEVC
Described as above. To be noted: both partners purified.

B1: Brn1-HA3-His12 (natural protein, budding yeast (S. cerevisiae), UniProt P38170 1-754, looked up)
chain: MTTQLRYENNDDDERVEYNLFTNRSTMMANFEEWIKMATDNKINSRNSWNFALIDYFYDLDVLKDGENNINFQKASATLDGCIKIYSSRVDSVTTETGKLLSGLAQRKTNGASNGDDSNGGNGEGLGGDSDEANIEIDPLTGMPISNDPDVNNTRRRVYNRVLETTLVEFETIKMKELDQELIIDPLFKKALVDFDEGGAKSLLLNTLNIDNTARVIFDASIKDTQNVGQGKLQRKEEELIERDSLVDDENEPSQSLISTRNDSTVNDSVISAPSMEDEILSLGMDFIKFDQIAVCEISGSIEQLRNVVEDINQAKDFIENVNNRFDNFLTEEELQAAVPDNAEDDSDGFDMGMQQELCYPDENHDNTSHDEQDDDNVNSTTGSIFEKDLMAYFDENLNRNWRGREHWKVRNFKKANLVNKESDLLEETRTTIGDTTDKNTTDDKSMDTKKKHKQKKVLEIDFFKTDDSFEDKVFASKGRTKIDMPIKNRKNDTHYLLPDDFHFSTDRITRLFIKPGQKMSLFSHRKHTRGDVSSGLFEKSTVSANHSNNDIPTIADEHFWADNYERKEQEEKEKEQSKEVGDVVGGALDNPFEDDMDGVDFNQAFEGTDDNEEASVKLDLQDDEDHKFPIRENKVTYSRVSKKVDVRRLKKNVWRSINNLIQEHDSRKNREQSSNDSETHTEDESTKELKFSDIIQGISKMYSDDTLKDISTSFCFICLLHLANEHGLQITHTENYNDLIVNYEDLATTQAAS
notes: Brn1, kleisin subunit of budding yeast (S. cerevisiae) condensin; 754 residues as printed (279/754 traced in the head module map); The tags' end is read from the plasmid's name BRN1-HA3-His12; also called kleisin Brn1
As to B1, the binding result with Smc4-3xStrepII and in the test with Ycg1 was “binds” each time.
